Data set [1] concerns the molecule itself. Kind of data set: non-reducing SDS-PAGE with Western blot; CHO cell-derived soluble protein dissolved in LDS sample buffer with NEM; non-reducing.
Data set [2] deals with the molecule itself. Kind of data set: non-reducing SDS-PAGE with Western blot; whole cell lysate of primary HDLEC lysed without NEM; non-reducing; polyclonal LYVE-1 antibody. On the technique in general: In western blotting, separated proteins are transferred to a membrane and probed.
Data set [3] concerns the molecule itself. The data set is described as follows: non-reducing SDS-PAGE with Western blot; cells lysed in LDS sample buffer with 5 mM NEM; non-reducing; polyclonal LYVE-1 antibody, densitometry (Licor Odyssey).
Data set [4] concerns the molecule itself. The data set is described as follows: non-reducing SDS-PAGE with Western blot; mouse liver and lung tissue, minced and lysed with 5 mM NEM; non-reducing.
Data set [5] concerns the molecule itself. The data set is described as follows: non-reducing SDS-PAGE with Western blot; freshly resected mouse ear skin and lymph node, minced and lysed with 5 mM NEM; non-reducing.

B1: hLYVE-1 Δ238 His10 (soluble full ectodomain, wild type) (domain or fragment, human, UniProt Q9Y5Y7 20-238, looked up)
chain: LVQGSLRAEELSIQVSCRIMGITLVSKKANQQLNFTEAKEACRLLGLSLAGKDQVETALKASFETCSYGWVGDGFVVISRISPNPKCGKNGVGVLIWKVPVSRQFAAYCYNSSDTWTNSCIPEIITTKDPIFNTQTATQTTEFIVSDSTYSVASPYSTIPAPTTTPPAPASTSIPRRKKLICVTEVFMETSTMSTETEPFVENKAAFKNEAAGFGGVPT
notes: signal peptide in the construct (forward primer begins 14 nt before the start ATG); LYVE-1, human, full-length extracellular domain terminating after residue number 238; secreted from CHO cells; Recovered as a mixture of monomers and disulfide-linked dimers; the homodimer was separated by multiple rounds of size exclusion chromatography; also called soluble hLYVE-1 ectodomain; WT LYVE-1 His10; …
On to B1, for which, in data set [1], the binding result is listed as “binds”.

B2: LYVE-1 (native receptor in primary human dermal lymphatic endothelial cells) (receptor, human (endogenous in HDLEC), UniProt Q9Y5Y7 20-322, looked up)
chain: LVQGSLRAEELSIQVSCRIMGITLVSKKANQQLNFTEAKEACRLLGLSLAGKDQVETALKASFETCSYGWVGDGFVVISRISPNPKCGKNGVGVLIWKVPVSRQFAAYCYNSSDTWTNSCIPEIITTKDPIFNTQTATQTTEFIVSDSTYSVASPYSTIPAPTTTPPAPASTSIPRRKKLICVTEVFMETSTMSTETEPFVENKAAFKNEAAGFGGVPTALLVLALLFFGAAAGLGFCYVKRYVKAFPFTNKNQQKEMIETKVVKEEKANDSNPNEESKKTDKNPEESKSPSKTTVRCLEAEV
notes: LYVE-1, human, endogenous receptor of primary human dermal lymphatic endothelial cells; glycosylated; also called lymphatic vessel endothelial receptor LYVE-1; hLYVE-1; source: endogenous, primary HDLEC whole cell lysate
Turning to B2, in data set [2], the stoichiometry N – broadly, a count of units in the complex or per binding partner – amounted to 2.

B3: full-length wild-type hLYVE-1 (in HEK 293T cells) (receptor, human, UniProt Q9Y5Y7 20-322, looked up)
chain: LVQGSLRAEELSIQVSCRIMGITLVSKKANQQLNFTEAKEACRLLGLSLAGKDQVETALKASFETCSYGWVGDGFVVISRISPNPKCGKNGVGVLIWKVPVSRQFAAYCYNSSDTWTNSCIPEIITTKDPIFNTQTATQTTEFIVSDSTYSVASPYSTIPAPTTTPPAPASTSIPRRKKLICVTEVFMETSTMSTETEPFVENKAAFKNEAAGFGGVPTALLVLALLFFGAAAGLGFCYVKRYVKAFPFTNKNQQKEMIETKVVKEEKANDSNPNEESKKTDKNPEESKSPSKTTVRCLEAEV
notes: also called wild-type receptor; source: HEK 293T, transfected, in lysate
In the case of B3, the “dimer:monomer ratio” value in data set [3] was 2 dimer:monomer.

B4: mouse LYVE-1 (native receptor in mouse tissues) (receptor, mouse (endogenous in mouse tissues), UniProt Q8BHC0 24-318, looked up)
chain: ADLVQDLSISTCRIMGVALVGRNKNPQMNFTEANEACKMLGLTLASRDQVESAQKSGFETCSYGWVGEQFSVIPRIFSNPRCGKNGKGVLIWNAPSSQKFKAYCHNSSDTWVNSCIPEIVTTFYPVLDTQTPATEFSVSSSAYLASSPDSTTPVSATTRAPPLTSMARKTKKICITEVYTEPITMATETEAFVASGAAFKNEAAGFGGVPTALLVLALLFFGAAAVLAVCYVKRYVKAFPFTTKNQQKEMIETKVVKEEKADDVNANEESKKTIKNPEEAKSPPKTTVRCLEAEV
notes: LYVE-1, mouse, endogenous in tissue lysates; source: endogenous, lysates of freshly resected mouse ear skin, lymph node, liver and lung
As to B4, the “homodimer:monomer ratio” value in data set [4] is ~2 homodimer:monomer. Besides, the “stoichiometry N” value in data set [5] was 2.

The record behind these values is publication PMC5122770, “Homodimerization of the Lymph Vessel Endothelial Receptor LYVE-1 through a Redox-labile Disulfide Is Critical for Hyaluronan Binding in Lymphatic Endothelium*^([image sbox.jpg])” (The Journal of Biological Chemistry, 2016).
